Assay results reported in paper PMC5091765.

Columns and labels:
[1] = biological target: bovine TGF-β RII extracellular domain fused to the human IgG1 Fc domain (bovine); test: ELISA; competition: TGF-β coated at 400 ng/mL; increasing concentrations of FhTLM incubated with the Receptor-Fc fusion in solution at 37°C for 1 hr, then added to the plate
[2] = biological target: bovine TGF-β RI extracellular domain fused to the human IgG1 Fc domain (bovine) (UniProt O46680); test: as above
[3] = biological target: bovine TGF-β RII extracellular domain fused to the human IgG1 Fc domain (bovine)
[4] = biological target: bovine TGF-β RI extracellular domain fused to the human IgG1 Fc domain (bovine) (UniProt O46680)
[5] = biological target: bovine TGF-β RII extracellular domain fused to the human IgG1 Fc domain (bovine); test: ELISA; competition: FhTLM coated at 400 ng/mL; increasing concentrations of TGF-β incubated with the Receptor-Fc fusion in solution at 37°C for 1 hr, then added to the plate
[6] = biological target: bovine TGF-β RI extracellular domain fused to the human IgG1 Fc domain (bovine) (UniProt O46680); test: as above

Chain of bovine TGF-β RI extracellular domain fused to the human IgG1 Fc domain (bovine) (O46680 30-122): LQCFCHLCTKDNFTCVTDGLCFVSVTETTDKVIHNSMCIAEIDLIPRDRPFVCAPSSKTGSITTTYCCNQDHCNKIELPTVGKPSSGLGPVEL

## F. hepatica TGF-like molecule, FhTLM (recombinant) (ligand)
[1]
  percent reduction of the binding of TGF-β RII-Fc to immobilised TGF-β1: 46%
[2]
  percent reduction of the binding of TGF-β RI-Fc to immobilised TGF-β1: 42%
[3]
  percent of primary bovine PBMCs positive for pSmad2/3 co-localised with the nucleus, 3 to 4 hrs with FhTLM: 15.8 % of cells
[4]
  percent of primary bovine PBMCs positive for pSmad2/3 co-localised with the nucleus, 3 to 4 hrs with FhTLM: 15.8 % of cells

## human TGF-β1 (ligand)
[5]
  percent reduction of the binding of TGF-β RII-Fc to immobilised FhTLM: 50%
[6]
  percent reduction of the binding of TGF-β RI-Fc (printed as TGF-β RII-Fc a second time) to immobilised FhTLM: 22%
